This note sets out measurements from patent publication US9868768B2, “Hydrophobic modified pres-derived peptides of hepatitis B virus (HBV) and their use as vehicles for the specific delivery of compounds to the liver” (RUPRECHT-KARLS-UNIVERSITAT HEIDELBERG, priority 2008, dated 2018).

Data set [1] is described as follows: Biodistribution of 131I-labelled peptides after subcutaneous injection in NMRI mice. In kind it is in vivo, male NMRI mice. The conditions noted are these: 2.25 μg 131I-labeled peptide s.c., 10 min, 1 h, 4 h and 24 h post injection. The method, then: Per time point 2.25 μg of ^131I-labeled HBVpreS/2-48^myr(D) were subcutaneously injected into NMRI mice (N=3). 10 min, 1 h, 4 h and 24 h post injection animals were sacrificed and the organ-specific (blood, lung, heart, spleen, liver, kidney and muscle) peptide accumulations (% ID/g) were determined.
The biodistribution of the hydrophobic modified preS-derived peptides was studied in male NMRI mice. All experiments were performed in compliance with German laws. The peptides, containing an additional Tyr-residue at the C-terminal end were labelled with ^131I (Amersham Biosciences, Freiburg, Germany) by the chloramine-T method and purified by HPLC. The labelled peptides were subcutaneously administered by injection of a solution in 50% DMSO. At selected times mice were sacrificed and the radioactivity contained in the blood, heart, lung, spleen, liver, kidney, muscle and brain was measured in a γ-counter (Canberra Packard, Rüsselsheim, Germany) and expressed as a percentage of injected dose per gram of tissue (% ID/g).

A short description of data set [2]: Stability assessment of peptide after extraction from the liver (reversed phase HPLC). The class given is in vivo, uPA+/−/RAG-2−/−Pfp−/− mice. Conditions: liver extracts 24 h post subcutaneous injection, 131I-labelled. The method, then:
Per animal approximately 2.25 μg of the ^131I-labelled peptides were subcutaneously injected. At the indicated time points animals were sacrificed and the liver specific peptide accumulation (% ID/g) was determined. (B) Reversed phase HPLC of pure ^131I-labelled HBVpreS/2-48^myr(D) (brown curve) in comparison to liver extracts (orange curve) obtained 24 h post subcutaneous injection into uPA+/−/RAG-2−/−Pfp−/− mice of the same peptide. Note that 50% of detectable activity is eluting at fraction 13. Since the hydrophobic myristoyl residue is located at the N-terminus and the iodinated Tyr-residue at the C-terminus fraction 13 represents the unaltered full-length peptide.
To determine the peptide stability in the liver 131I labelled HBVpreS/2-48^myr (D) was extracted from one liver lobe 24 h post subcutaneous injection. To that aim, 1 ml water per gram frozen liver tissue was added to the sample. After homogenization an equal volume of acetonitrile was added and the homogenization was repeated. After centrifugation (2×10 min at 4000×g) this solution was separated on a reverse phase HPLC column and the radioactivity of each fraction was quantified in a gamma counter.

Data set [3] can be described thus: Biodistribution after subcutaneous application in uPA+/−/RAG-2−/−Pfp−/− mice. The class given is in vivo. The conditions noted are these: 2.25 μg 131I-labeled peptide s.c., 10 min to 24 h.
Data set [4] has as its system Primary mouse hepatocytes (PMH). Briefly: Immunofluorescence binding to primary mouse hepatocytes. The class given is cell-based. The conditions noted are these: 400 nM peptide, 4 hours at 37° C.; for Binding to primary mouse hepatocytes (PMH): differentiated PMH. The method, then: (§1) Cells were incubated with or without 400 nM peptide for 4 hours at 37° C.:
[…] After 1 hour incubation at 37° C. cells were fixed and nuclei were stained with DAPI. Fluorescence microscopy was performed on a Spinning Disk Confocal Microscope at 600× magnification.

The test system is the same in data set [5]. Briefly: FACS analysis of binding to primary mouse hepatocytes. In kind it is cell-based. The conditions noted are these: 200 nM, 30 minutes at room temperature. The method, then: Cryo-preserved primary hepatocytes were thawed and washed with serum-free medium. In each reaction 4×10^5 cells/ml were incubated with the respective peptide at a concentration of 200 nM in serum-free cell culture medium. The staining was performed for 30 minutes at room temperature with frequent mixing. Subsequently, cells were washed extensively and resuspended in PBS to proceed with the FACS analysis.
In general terms: In flow cytometry, cells or beads pass a laser one at a time.

A further data set concerns HepaRG cells. Briefly: Immunofluorescence binding to HepaRG cells. The conditions noted are these: 400 nM peptide, 4 hours at 37° C. The class given is cell-based. The method, then:
as §1
HepaRG cells were grown in William's E medium supplemented with 10% fetal calf serum (FCS), 100 units/ml penicillin, 100 μg/ml streptomycin, 5 μg/ml insulin and 5×10^−5 M hydrocortisone hemisuccinate (10). Cells were passaged 1/5 every two weeks by trypsination. Two to three weeks before infection cell differentiation was induced by adding 2% DMSO into the maintenance medium. The medium was exchanged every 2-3 days.
(§2) Primary hepatocytes grown on cover slips were incubated with the respective peptide at 200 nM in serum-free cell culture medium. After 1 hour incubation at 37° C. cells were fixed and nuclei were stained with DAPI. Fluorescence microscopy was performed on a Spinning Disk Confocal Microscope at 600× magnification.

In data set [6] the test system is primary human hepatocytes (PHH). Briefly: Immunofluorescence binding to primary human hepatocytes. The class given is cell-based. The conditions noted are these: 400 nM peptide for 4 hours, confocal immunofluorescence. The method, then:
Primary human hepatocytes (PHH) were incubated with or without 400 nM peptide for 4 hours:
as §2

“Also recorded” adds a separate entry of the source.

As to “HBVpreS/2-48^myr(D): SEQ ID NO. 23, genotype D residues 2-48, N-terminus myristoylated”, the “organ-specific peptide accumulation (biodistribution)” value in data set [1] and in data set [3] was “most of the peptide accumulates in the liver” in each case. Also, in data set [2], the “detectable activity eluting at fraction 13 (unaltered full-length peptide) in liver extract” value is 50%.

For “mut myr-FITC: HBVpreS/2-48 myr (C)-FITC with D-Leu and D-Phe at positions L11 and F13 [reference compound]”, the “Binding to primary mouse hepatocytes (PMH)” value in data set [4] is “Only wt myr-FITC binds to the cells”. The “Binding to primary mouse hepatocytes (PMH), FACS analysis” value in data set [5] was “Only wt myr-FITC binds to the cells”. For the same substance, in the data set on HepaRG cells, the “Binding to differentiated HepaRG cells” value is given as “Only wt myr-FITC binds to the cells”. Also, in data set [6], the “Binding to primary human hepatocytes (PHH)” value (“Binding … (PHH)” below) is “only in B binding of the peptide to the cells can be seen”.

As to “wt myr(−)-FITC: HBVpreS/2-48(C)-FITC without myristoylation [reference compound]”, the “Binding to primary mouse hepatocytes (PMH)” value in data set [4] was “Only wt myr-FITC binds to the cells”. Also, the “Binding to differentiated HepaRG cells” value in the data set on HepaRG cells is on record as “Only wt myr-FITC binds to the cells”. Further, the “Binding … (PHH)” value in data set [6] is reported as “only in B binding of the peptide to the cells can be seen”.

Turning to “wt myr-FITC: HBVpreS/2-48 myr (C) with lysine at the C-terminus [SEQ ID NO. 39], labelled with FITC”, in data set [4] (de-differentiated PMH), the “Binding to de-differentiated primary mouse hepatocytes (PMH)” value is “binds only to differentiated cells”. In addition, the “Binding to primary mouse hepatocytes (PMH)” value in data set [4] is given as “Only wt myr-FITC binds to the cells; also recorded: binds only to differentiated cells”. Besides, the “Binding to primary mouse hepatocytes (PMH), FACS analysis” value in data set [5] is “Only wt myr-FITC binds to the cells”. For the same substance, in the data set on HepaRG cells, the “Binding to differentiated HepaRG cells” value is listed as “Only wt myr-FITC binds to the cells; also recorded: binds only to differentiated cells”. Besides, the “Binding to undifferentiated HepaRG cells” value in the data set on HepaRG cells (undifferentiated cells) was “binds only to differentiated cells”. The “Binding … (PHH)” value in data set [6] was “only in B binding of the peptide to the cells can be seen”.
